The text below walks through data of paper PMC8126724, “Infant-Associated Bifidobacterial β-Galactosidases and Their Ability to Synthesize Galacto-Oligosaccharides” (Frontiers in Microbiology, 2021).

Series [1] has as its target BgaC β-galactosidase (B216_08266) (B. bifidum LMG 13195). Put plainly: SEC-MALS; Superose 6 10/300 G/L, 50 mM Tris-HCl, 150 mM NaCl, pH 7.5, 0.5 mL/min; dual-angle light scattering (RALS/LALS) and refractometer (OmniSec REVEAL); protein concentrations in Supplementary Table 1; native mass compared with the calculated monomer mass (with His-tag).
Series [2] has as its target BgaB β-galactosidase (Bbr_0529) (B. breve UCC2003). The series is described as above.
Series [3] relates to O=[N+]([O-])c1ccccc1O[C@@H]1O[C@H](CO)[C@H](O)[C@H](O)[C@H]1O. Put plainly: o-nitrophenol release, A420. Format: biochemical, Bifidobacterium longum subsp. longum. The note with it: 0.1 M sodium acetate pH 6.5, 40 °C, unit mM, not in table. The text has this:
o-nitrophenol release, A420 on BgaF

Series [4] concerns the target BgaA β-galactosidase (Bbr_0010) (B. breve UCC2003). Kind of series: SEC-MALS; Superose 6 10/300 G/L, 50 mM Tris-HCl, 150 mM NaCl, pH 7.5, 0.5 mL/min; dual-angle light scattering (RALS/LALS) and refractometer (OmniSec REVEAL); protein concentrations in Supplementary Table 1; native mass compared with the calculated monomer mass (with His-tag).
Series [5] concerns the target BgaG β-galactosidase (Blon_2016) (B. longum subsp. infantis ATCC 15697). The description is as above.
Series [6] concerns the target BgaD β-galactosidase (B8809_0415) (B. longum subsp. longum NCIMB 8809). The series is described as above.
Series [7] deals with BgaE β-galactosidase (B8809_0611) (B. longum subsp. longum NCIMB 8809). The description is as above.

As to “BgaC β-galactosidase (B216_08266) (enzyme)”, the stoichiometry N in series [1] is 3.

For the substance “BgaB β-galactosidase (Bbr_0529) (enzyme)”, the stoichiometry N in series [2] is 3.

Take “BgaF (Bifidobacterium longum subsp. longum)”: the Km in series [3] is 5.178 mM.

“BgaA β-galactosidase (Bbr_0010) (enzyme)”: in series [4], the stoichiometry N was 2.

Regarding “BgaG β-galactosidase (Blon_2016) (enzyme)”, the stoichiometry N in series [5] is 3.

On to “BgaD β-galactosidase (B8809_0415) (enzyme)”, for which, in series [6], the stoichiometry N is 3.

With “BgaE β-galactosidase (B8809_0611) (enzyme)”, the stoichiometry N in series [7] is 4.

Broadly, the stoichiometry N is the number of molecules, sites or subunits per partner or assembly. The term Km denotes the substrate concentration at which the rate is half of its maximum.
